Measurements published in paper PMC9081212.

Target: wild-type human γS-crystallin (human) (UniProt P22914)
Assay: SEC-MALS

stoichiometry N: 2
Substance: wild-type human γS-crystallin (from UniProt P22914 1-178) (natural protein)
